Residue numbers refer to the chain shown, from its start. Names and notes keep the numbering of the source.
B1: M4-3(A7)/ML2(E10) IgG (antibody, V domains shown)
VH: QVQLQESGPGLVKPSQTLSLTCTVSGGSITDGYYWNWIRQHPGKGLEWIGYITFDGRNNYNPSLKSRVTISRDTSKNQFSLKLSSVTAADTAVYYCADFDYWGQGTLVTVSS
VL: DIQMTQSPSSLSASVGDRVTITCRASYGIRGYLNWYQQKPGKAPKLLIYYTSSLHSGVPSRFSGSGSGTDFTLTISSLQPEDFATYHCQQYSKLPWTFGQGTKVEIK
notes: Human IgG1 format, purified from mammalian production
B2: M4-3(C1)/ML2(G3) IgG (antibody, V domains shown)
VH: B1 VH with D31S, R57S
VL: DIQMTQSPSSLSASVGDRVTITCRASQGIRNYLNWYQQKPGKAPKLLIYYTSSLHSGVPSRFSGSGSGTDYTLTISSLQPEDFATYYCQQYSALPWTFGQGTKVEIKR
notes: Human IgG1 format, produced in HEK293-EBNA
B3: M4-3/ML2(C5/G3) IgG (antibody, V domains shown)
VH: B1 VH with D31S, F54Y, R57S
VL: B1 VL with Y27R, G31E, S52G, H87Y, K93A
notes: as for B1
B4: M4-3/ML2(E10/G3) IgG (antibody, V domains shown)
VH: B1 VH with D31S, F54Y, R57S
VL: B1 VL with K93A
notes: as for B1
B5: M4-3(A7)/ML2(C5) IgG (antibody, V domains shown)
VH: B1 VH
VL: B1 VL with Y27R, G31E, S52G, H87Y, K93E
notes: as for B1
B6: M4-3(D6)/ML2 IgG (antibody, V domains shown)
VH: B1 VH with D31S, R57K
VL: B1 VL with Y27Q, G31N, H87Y
notes: as for B1
B7: M4-3/ML2(G3) IgG (antibody, V domains shown)
VH: B1 VH with D31S, F54Y, R57S
VL: B1 VL with Y27Q, G31N, F71Y, H87Y, K93A
notes: as for B1
B8: M4-3(C1)/ML2 IgG (antibody, V domains shown)
VH: B1 VH with D31S, R57S
VL: B1 VL with Y27Q, G31N, H87Y
notes: as for B1
B9: M4-3(B7)/ML2 IgG (antibody, V domains shown)
VH: B1 VH with D31S, R57I
VL: B1 VL with Y27Q, G31N, H87Y
notes: as for B1
B10: M4-3(A7)/ML2(G3) IgG (antibody, V domains shown)
VH: B1 VH
VL: B1 VL with Y27Q, G31N, F71Y, H87Y, K93A
notes: as for B1
B11: M4-3(C1)/ML2(C5) IgG (antibody, V domains shown)
VH: B1 VH with D31S, R57S
VL: B1 VL with Y27R, G31E, S52G, H87Y, K93E
notes: as for B2
B12: M4-3(C1)/ML2(E10) IgG (antibody, V domains shown)
VH: B1 VH with D31S, R57S
VL: B1 VL
notes: as for B2
B13: M4-3(B8)/ML2 IgG (antibody, V domains shown)
VH: B1 VH with D31S
VL: B1 VL with Y27Q, G31N, H87Y
notes: as for B1
B14: M4-3/ML2(C5) IgG (antibody, V domains shown)
VH: B1 VH with D31S, F54Y, R57S
VL: B1 VL with Y27R, G31E, S52G, H87Y, K93E
notes: as for B1
B15: M4-3/ML2(E10) IgG (antibody, V domains shown)
VH: B1 VH with D31S, F54Y, R57S
VL: B1 VL
notes: as for B1
B16: M4-3(A7)/ML2 IgG (antibody, V domains shown)
VH: B1 VH
VL: B1 VL with Y27Q, G31N, H87Y
notes: as for B1
B17: MCSP TCB (2+1 Crossfab-IgG P329G LALA inverted) (bispecific antibody)
chain 1: not shown
chain 2: QAVVTQEPSLTVSPGGTVTLTCGSSTGAVTTSNYANWVQEKPGQAFRGLIGGTNKRAPGTPARFSGSLLGGKAALTLSGAQPEDEAEYYCALWYSNLWVFGGGTKLTVLSSASTKGPSVFPLAPSSKSTSGGTAALGCLVKDYFPEPVTVSWNSGALTSGVHTFPAVLQSSGLYSLSSVVTVPSSSLGTQTYICNVNHKPSNTKVDKKVEPKSC
chain 3: not shown
chain 4: QVQLQESGPGLVKPSQTLSLTCTVSGGSITSGYYWNWIRQHPGKGLEWIGYITFDGSNNYNPSLKSRVTISRDTSKNQFSLKLSSVTAADTAVYYCADFDYWGQGTLVTVSSASTKGPSVFPLAPSSKSTSGGTAALGCLVKDYFPEPVTVSWNSGALTSGVHTFPAVLQSSGLYSLSSVVTVPSSSLGTQTYICNVNHKPSNTKVDKKVEPKSCDKTHTCPPCPAPEAAGGPSVFLFPPKPKDTLMISRTPEVTCVVVDVSHEDPEVKFNWYVDGVEVHNAKTKPREEQYNSTYRVVSVLTVLHQDWLNGKEYKCKVSNKALGAPIEKTISKAKGQPREPQVCTLPPSRDELTKNQVSLSCAVKGFYPSDIAVEWESNGQPENNYKTTPPVLDSDGSFFLVSKLTVDKSRWQQGNVFSCSVMHEALHNHYTQKSLSLSPGK
notes: Two anti-MCSP Fabs M4-3(C1) ML2(G3), one anti-CD3 crossfab (humanized CH2527), Fc knob-into-hole with P329G LALA; the conventional light chain occurs twice (vector ratio 1:2:1:1); also called MCSP TCB antibody; MCSP CD3 bispecific antibody

These binders were tested against T1, human MCSP(D3 domain)-avi-his (human, UniProt Q6UVK1 1582-2224) (assay: SPR ProteOn XPR36; parental M4-3/ML2 IgG KD against variant IgG KD).
T1 construct: Recombinant D3 domain of MCSP (CSPG4) with avi and his tags; also called hu-MCSP(D3 domain)-avi-his; human MCSP antigen
T1 sequence: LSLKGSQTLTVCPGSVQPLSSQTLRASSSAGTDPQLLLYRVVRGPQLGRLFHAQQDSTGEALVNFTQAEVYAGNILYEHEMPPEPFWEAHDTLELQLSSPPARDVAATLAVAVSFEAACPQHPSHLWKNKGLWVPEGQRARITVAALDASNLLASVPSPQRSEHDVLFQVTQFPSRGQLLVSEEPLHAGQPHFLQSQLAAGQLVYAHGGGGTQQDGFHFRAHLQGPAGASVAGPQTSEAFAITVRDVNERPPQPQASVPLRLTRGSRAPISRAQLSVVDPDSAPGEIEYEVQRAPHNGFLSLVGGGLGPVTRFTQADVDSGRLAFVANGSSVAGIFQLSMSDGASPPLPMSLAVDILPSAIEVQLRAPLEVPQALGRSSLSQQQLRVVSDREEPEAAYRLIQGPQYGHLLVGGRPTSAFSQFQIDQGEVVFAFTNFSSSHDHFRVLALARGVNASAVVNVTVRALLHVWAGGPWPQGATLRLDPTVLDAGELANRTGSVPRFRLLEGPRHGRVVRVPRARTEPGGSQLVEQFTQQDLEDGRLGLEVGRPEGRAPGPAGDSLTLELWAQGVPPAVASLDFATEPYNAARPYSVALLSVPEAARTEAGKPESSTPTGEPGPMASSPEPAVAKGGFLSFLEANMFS

| Binder | Fold increase over parent (IgG KD) |
| --- | --- |
| B1 | 6.7 fold |
| B2 | 28.6 fold |
| B3 | 2.9 fold |
| B4 | 5 fold |
| B5 | 28.6 fold |
| B6 | 5 fold |
| B7 | 6.7 fold |
| B8 | 2.2 fold |
| B9 | 4 fold |
| B10 | 28.6 fold |
| B11 | 10 fold |
| B12 | 4 fold |
| B13 | 2.2 fold |
| B14 | 5 fold |
| B15 | 2 fold |
| B16 | 2.5 fold |

Molecular target: T2, cynomolgus MCSP D3 (cynomolgus, UniProt Q6UVK1 1582-2224 (human entry), limits assumed)
T2 construct: Recombinant, captured through anti-Penta His in the avidity set-up; also called Cyno MCSP; cynomolgus homologue
T2 chain: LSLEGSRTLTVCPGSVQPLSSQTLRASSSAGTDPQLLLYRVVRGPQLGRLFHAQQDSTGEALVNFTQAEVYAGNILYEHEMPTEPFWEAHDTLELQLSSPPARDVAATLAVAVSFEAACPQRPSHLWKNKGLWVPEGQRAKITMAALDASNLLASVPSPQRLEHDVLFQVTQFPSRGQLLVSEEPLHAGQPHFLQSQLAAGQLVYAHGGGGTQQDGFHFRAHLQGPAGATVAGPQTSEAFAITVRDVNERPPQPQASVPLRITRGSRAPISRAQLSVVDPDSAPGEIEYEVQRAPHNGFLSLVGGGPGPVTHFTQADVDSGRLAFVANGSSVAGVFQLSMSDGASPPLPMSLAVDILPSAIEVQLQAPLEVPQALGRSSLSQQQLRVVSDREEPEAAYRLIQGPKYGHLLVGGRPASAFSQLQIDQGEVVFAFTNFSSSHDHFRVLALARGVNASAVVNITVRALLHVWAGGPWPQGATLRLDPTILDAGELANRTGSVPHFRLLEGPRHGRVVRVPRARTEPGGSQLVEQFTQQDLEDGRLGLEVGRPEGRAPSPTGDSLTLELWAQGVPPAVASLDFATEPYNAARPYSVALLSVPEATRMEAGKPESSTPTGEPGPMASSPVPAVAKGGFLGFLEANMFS
Assay: as above

| Binder | Fold increase over parent (IgG KD) |
| --- | --- |
| B1 | 2.9 fold |
| B2 | 10 fold |
| B3 | 2 fold |
| B4 | 2.2 fold |
| B5 | 10 fold |
| B6 | 2 fold |
| B7 | 3.3 fold |
| B8 | 2.5 fold |
| B9 | 2.9 fold |
| B10 | 10 fold |
| B11 | 6.7 fold |
| B12 | 3.3 fold |
| B13 | 2 fold |
| B14 | 2 fold |
| B15 | 1 fold |
| B16 | 2 fold |

The binders below were run against T3, human CD3 on Jurkat cells (Homo sapiens, UniProt P07766) (assay: flow cytometry on Jurkat cells (CD3+), PE-conjugated anti-human IgG Fcγ secondary antibody, median fluorescence intensity).
T3 construct: native, on the surface of the Jurkat human T cell line; also called CD3+ cells (Jurkat)
Description: Briefly, cells were harvested, counted, checked for viability and resuspended at 2×10⁶ cells/ml in FACS buffer (100 μl PBS 0.1% BSA).

T3 sequence (P07766 23-207): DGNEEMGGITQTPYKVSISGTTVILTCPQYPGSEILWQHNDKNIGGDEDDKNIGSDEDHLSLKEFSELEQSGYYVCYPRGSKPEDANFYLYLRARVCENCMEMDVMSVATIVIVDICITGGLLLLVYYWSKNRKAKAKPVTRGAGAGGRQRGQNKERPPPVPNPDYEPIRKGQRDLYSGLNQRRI

| Binder | binding result |
| --- | --- |
| B17 | binds |
